# From the supplement of paper PMC10567573
# B1: IMPA1 (parent)
# chain: FIGEESVAAGEKSILTDNPTWIID
# Variants of: B1
# Assay: protein stability index of a GFP-peptide fusion (GPS, HEK-293T) (PSI 1-6); higher = more stable
# Conditions: c terminus: a fixed tail appended
# 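Also: lentivirally expressed fusions sorted by FACS into six bins by GFP to DsRed ratio, PSI derived from sequencing read proportions per bin multiplied by bin number.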
row,Variant,protein stability index
1,FIGEESVAAGEKSILTDRPTWIID,2.31
2,FIGEESVAAGEKSILTDSPTWIID,3.05
3,FIGEESVAAGEKSILTDTPTWIID,2.84
4,FIGEESVAAGEKSILTDVPTWIID,2.75
5,FIGEESVAAGEKSILTDWPTWIID,2.1
6,FIGEESVAAGEKSILTDYPTWIID,2.62
7,FIGEESVAAGEKSILTDNATWIID,2.41
8,FIGEESVAAGEKSILTDNCTWIID,1.76
9,FIGEESVAAGEKSILTDNDTWIID,3.09
10,FIGEESVAAGEKSILTDNETWIID,3.51
11,FIGEESVAAGEKSILTDNFTWIID,2.35
12,FIGEESVAAGEKSILTDNGTWIID,3.13
13,FIGEESVAAGEKSILTDNHTWIID,3.02
14,FIGEESVAAGEKSILTDNITWIID,2.32
15,FIGEESVAAGEKSILTDNKTWIID,2.2
16,FIGEESVAAGEKSILTDNLTWIID,1.97
17,FIGEESVAAGEKSILTDNMTWIID,2.27
18,FIGEESVAAGEKSILTDNNTWIID,2.89
19,FIGEESVAAGEKSILTDNQTWIID,2.92
20,FIGEESVAAGEKSILTDNRTWIID,1.96
21,FIGEESVAAGEKSILTDNSTWIID,2.38
22,FIGEESVAAGEKSILTDNTTWIID,2.83
23,FIGEESVAAGEKSILTDNVTWIID,2.39
24,FIGEESVAAGEKSILTDNWTWIID,1.96

row,Variant,protein stability index
1,FIGEESVAAGEKSILTDNYTWIID,2.18
2,FIGEESVAAGEKSILTDNPAWIID,2.43
3,FIGEESVAAGEKSILTDNPCWIID,2.2
4,FIGEESVAAGEKSILTDNPDWIID,3.32
5,FIGEESVAAGEKSILTDNPEWIID,3.67
6,FIGEESVAAGEKSILTDNPFWIID,2.29
7,FIGEESVAAGEKSILTDNPGWIID,2.71
8,FIGEESVAAGEKSILTDNPHWIID,2.67
9,FIGEESVAAGEKSILTDNPIWIID,1.73
10,FIGEESVAAGEKSILTDNPKWIID,3.4
11,FIGEESVAAGEKSILTDNPLWIID,2.05
12,FIGEESVAAGEKSILTDNPMWIID,1.82
13,FIGEESVAAGEKSILTDNPNWIID,3.1
14,FIGEESVAAGEKSILTDNPPWIID,2.25
15,FIGEESVAAGEKSILTDNPQWIID,3.09
16,FIGEESVAAGEKSILTDNPRWIID,2.73
17,FIGEESVAAGEKSILTDNPSWIID,2.56
18,FIGEESVAAGEKSILTDNPVWIID,2.65
19,FIGEESVAAGEKSILTDNPWWIID,2.03
20,FIGEESVAAGEKSILTDNPYWIID,1.7
21,FIGEESVAAGEKSILTDNPTAIID,4.65
22,FIGEESVAAGEKSILTDNPTCIID,4.23
23,FIGEESVAAGEKSILTDNPTDIID,4.85
24,FIGEESVAAGEKSILTDNPTEIID,5.07

row,Variant,protein stability index
1,FIGEESVAAGEKSILTDNPTFIID,3.89
2,FIGEESVAAGEKSILTDNPTGIID,4.71
3,FIGEESVAAGEKSILTDNPTHIID,4.71
4,FIGEESVAAGEKSILTDNPTIIID,3.92
5,FIGEESVAAGEKSILTDNPTKIID,4.78
6,FIGEESVAAGEKSILTDNPTLIID,4.06
7,FIGEESVAAGEKSILTDNPTMIID,4.69
8,FIGEESVAAGEKSILTDNPTNIID,4.57
9,FIGEESVAAGEKSILTDNPTPIID,4.67
10,FIGEESVAAGEKSILTDNPTQIID,4.65
11,FIGEESVAAGEKSILTDNPTRIID,4.48
12,FIGEESVAAGEKSILTDNPTSIID,4.41
13,FIGEESVAAGEKSILTDNPTTIID,4.87
14,FIGEESVAAGEKSILTDNPTVIID,4.95
15,FIGEESVAAGEKSILTDNPTYIID,3.96
16,FIGEESVAAGEKSILTDNPTWAID,1.76
17,FIGEESVAAGEKSILTDNPTWCID,2.18
18,FIGEESVAAGEKSILTDNPTWDID,4.58
19,FIGEESVAAGEKSILTDNPTWEID,4.71
20,FIGEESVAAGEKSILTDNPTWFID,2.01
21,FIGEESVAAGEKSILTDNPTWGID,3.11
22,FIGEESVAAGEKSILTDNPTWHID,3.37
23,FIGEESVAAGEKSILTDNPTWKID,2.48
24,FIGEESVAAGEKSILTDNPTWLID,2.67

row,Variant,protein stability index
1,FIGEESVAAGEKSILTDNPTWMID,2.57
2,FIGEESVAAGEKSILTDNPTWNID,3.12
3,FIGEESVAAGEKSILTDNPTWPID,3.76
4,FIGEESVAAGEKSILTDNPTWQID,2.75
5,FIGEESVAAGEKSILTDNPTWRID,2.09
6,FIGEESVAAGEKSILTDNPTWSID,2.35
7,FIGEESVAAGEKSILTDNPTWTID,1.68
8,FIGEESVAAGEKSILTDNPTWVID,2.31
9,FIGEESVAAGEKSILTDNPTWWID,2.33
10,FIGEESVAAGEKSILTDNPTWYID,2.82
11,FIGEESVAAGEKSILTDNPTWIAD,1.84
12,FIGEESVAAGEKSILTDNPTWICD,3.44
13,FIGEESVAAGEKSILTDNPTWIDD,3.04
14,FIGEESVAAGEKSILTDNPTWIED,3.85
15,FIGEESVAAGEKSILTDNPTWIFD,2.81
16,FIGEESVAAGEKSILTDNPTWIGD,2.99
17,FIGEESVAAGEKSILTDNPTWIHD,3.75
18,FIGEESVAAGEKSILTDNPTWIKD,3.64
19,FIGEESVAAGEKSILTDNPTWILD,3.6
20,FIGEESVAAGEKSILTDNPTWIMD,2.52
21,FIGEESVAAGEKSILTDNPTWIND,3.55
22,FIGEESVAAGEKSILTDNPTWIPD,3.04
